This data set concerns the molecule itself. As to the kind of experiment: immunoblot of unboiled N. benthamiana leaf extract, SDS-PAGE, anti-Kcv detection.

B1: Blue Light-INduced K+ channel 1 (BLINK1) (other)
chain: MGCTVSAELATTLERIEKNFVITDPRLPDNPIIFASDSFLQLTEYSREEILGRNCRFLQGPETDRATVRKIRDAIDNQTEVTVQLINYTKSGKKFWNLFHLQPMRDQKGDVQYFIGVQLDGTEHVRDAAEREGVMLIKKTAEVFSKFLTRTEPFMIHLFILAMFVMIYKFFPGGFENNFSVANPDKKASWIDCIYFGVTTHSTVGFGDILPKTTGAKLCTIAHIVTVFFIVLTL
notes: Expressed transiently under the CaMV 35S promoter in N. benthamiana leaves; Unboiled total protein extract was run on SDS-PAGE; The tetramer was detected, with an expected Mw of 106.5 kDa; also called synthetic, blue light-gated K+ channel
B1: the binding result is recorded as “binds”.

(Values after patent publication US20220042026A1 (UNIVERSITY COURT OF THE UNIVERSITY OF GLASGOW, published 2022).)
